Measurements from paper PMC7229842, “Molecular basis of the multifaceted functions of human leucyl-tRNA synthetase in protein synthesis and beyond” (Nucleic Acids Research, 2020).
Blank lines part the entries; values can stand above or below the binder they belong to.

Columns and labels:
[1] = biological target: T1, MRS-AIMP3 complex (human cytosolic methionyl-tRNA synthetase co-expressed with AIMP3) (human, UniProt P56192 1-900; O43324 1-174); test: pull-down; in vitro assembly of the MSC as in a2 but lacking IRS; anti-Flag beads on MRS-Flag; conditions: both partners purified
T1 construct: human cytosolic methionyl-tRNA synthetase (MRS), gene cloned from the cDNA of HEK293 cells; Only MRS carries the Flag tag; It is the bait of the anti-Flag pull-down of the assembled MSC; source: co-expressed from a modified pETDuet-1, purified (Ni-NTA, gel filtration); not shown: Flag, C-terminal, kept
T1 sequence (looked up) 1: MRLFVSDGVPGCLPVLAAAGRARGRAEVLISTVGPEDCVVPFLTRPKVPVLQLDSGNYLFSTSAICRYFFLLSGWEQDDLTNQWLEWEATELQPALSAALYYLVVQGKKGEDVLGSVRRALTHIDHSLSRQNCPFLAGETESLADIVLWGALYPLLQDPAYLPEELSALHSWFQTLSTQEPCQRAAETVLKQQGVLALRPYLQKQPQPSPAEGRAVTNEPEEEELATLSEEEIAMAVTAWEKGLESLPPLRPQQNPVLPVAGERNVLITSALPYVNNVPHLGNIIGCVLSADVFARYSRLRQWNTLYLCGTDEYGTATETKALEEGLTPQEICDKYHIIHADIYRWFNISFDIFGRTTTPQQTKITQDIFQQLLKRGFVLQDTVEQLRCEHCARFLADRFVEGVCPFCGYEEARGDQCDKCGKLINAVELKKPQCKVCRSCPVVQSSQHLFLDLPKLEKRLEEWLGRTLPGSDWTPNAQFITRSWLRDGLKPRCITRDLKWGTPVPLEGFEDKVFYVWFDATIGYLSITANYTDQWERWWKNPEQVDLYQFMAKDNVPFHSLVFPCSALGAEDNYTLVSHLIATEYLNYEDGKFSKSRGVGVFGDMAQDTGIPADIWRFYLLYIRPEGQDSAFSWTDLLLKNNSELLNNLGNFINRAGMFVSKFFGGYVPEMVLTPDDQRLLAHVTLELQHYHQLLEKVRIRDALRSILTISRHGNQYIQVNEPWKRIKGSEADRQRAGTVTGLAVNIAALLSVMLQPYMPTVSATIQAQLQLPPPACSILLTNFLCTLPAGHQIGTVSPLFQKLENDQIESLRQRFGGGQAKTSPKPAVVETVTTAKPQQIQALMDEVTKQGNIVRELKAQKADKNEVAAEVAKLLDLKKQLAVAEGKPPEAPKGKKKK
T1 sequence (looked up) 2: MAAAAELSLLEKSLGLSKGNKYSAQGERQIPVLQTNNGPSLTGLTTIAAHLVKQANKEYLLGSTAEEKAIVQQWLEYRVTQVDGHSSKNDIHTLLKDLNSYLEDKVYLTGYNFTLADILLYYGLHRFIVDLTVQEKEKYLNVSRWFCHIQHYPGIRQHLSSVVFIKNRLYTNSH

[2] = biological target: T2, Human cytosolic isoleucyl-tRNA synthetase (human, UniProt P41252 1-1262); test: SEC; purified hcLRS (or hcLRS_d106) incubated with each partner separately for 4 h, then run on gel filtration; protein incubated with buffer as control; conditions: both partners purified
T2 construct: human cytosolic isoleucyl-tRNA synthetase (IRS), gene cloned from the cDNA of HEK293 cells; also called IRS; source: recombinant from a modified pET28b, purified (Ni-NTA, gel filtration)
T2 sequence (looked up): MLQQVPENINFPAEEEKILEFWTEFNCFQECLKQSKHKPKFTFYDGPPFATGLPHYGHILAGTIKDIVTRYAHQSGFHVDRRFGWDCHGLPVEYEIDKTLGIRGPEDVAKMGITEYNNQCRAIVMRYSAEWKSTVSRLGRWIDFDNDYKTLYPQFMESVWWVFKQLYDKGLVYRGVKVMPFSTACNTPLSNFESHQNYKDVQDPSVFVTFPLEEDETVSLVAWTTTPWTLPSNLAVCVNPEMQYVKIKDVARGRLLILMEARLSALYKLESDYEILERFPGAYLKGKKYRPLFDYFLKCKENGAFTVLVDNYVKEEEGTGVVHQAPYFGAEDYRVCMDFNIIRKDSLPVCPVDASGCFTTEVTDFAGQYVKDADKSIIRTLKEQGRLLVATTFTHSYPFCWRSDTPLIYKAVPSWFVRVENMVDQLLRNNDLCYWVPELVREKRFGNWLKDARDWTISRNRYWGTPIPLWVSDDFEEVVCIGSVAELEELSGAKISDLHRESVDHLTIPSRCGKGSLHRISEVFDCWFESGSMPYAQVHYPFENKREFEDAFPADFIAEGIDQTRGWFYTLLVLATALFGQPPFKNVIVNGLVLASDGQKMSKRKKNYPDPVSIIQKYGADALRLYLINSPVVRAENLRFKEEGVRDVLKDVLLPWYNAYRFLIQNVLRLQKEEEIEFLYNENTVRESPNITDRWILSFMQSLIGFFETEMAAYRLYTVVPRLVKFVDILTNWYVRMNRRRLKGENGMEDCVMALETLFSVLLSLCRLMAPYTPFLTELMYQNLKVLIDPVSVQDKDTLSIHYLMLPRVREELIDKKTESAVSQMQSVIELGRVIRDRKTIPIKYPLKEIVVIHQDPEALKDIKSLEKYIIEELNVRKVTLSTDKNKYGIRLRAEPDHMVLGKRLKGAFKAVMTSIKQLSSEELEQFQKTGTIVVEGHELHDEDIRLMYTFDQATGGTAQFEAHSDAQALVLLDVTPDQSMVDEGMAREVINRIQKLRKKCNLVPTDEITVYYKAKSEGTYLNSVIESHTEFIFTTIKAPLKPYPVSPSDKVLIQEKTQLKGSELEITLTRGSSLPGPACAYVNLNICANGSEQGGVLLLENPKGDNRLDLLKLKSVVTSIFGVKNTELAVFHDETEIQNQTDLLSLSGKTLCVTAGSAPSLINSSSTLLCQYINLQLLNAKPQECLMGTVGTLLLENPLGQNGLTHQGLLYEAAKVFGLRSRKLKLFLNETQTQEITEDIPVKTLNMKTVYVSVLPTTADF

B2: Human cytosolic leucyl-tRNA synthetase, full length (enzyme)
chain: not shown
notes: human cytosolic leucyl-tRNA synthetase, UniProt Q9P2J5, 1176 residues; also called hcLRS; FL-hcLRS; source: recombinant from pET16b-hcLRS, purified (Ni-NTA, gel filtration)
binding result [2]: binds

B3: Human cytosolic glutaminyl-tRNA synthetase (enzyme, UniProt P47897 1-775, looked up)
chain: MAALDSLSLFTSLGLSEQKARETLKNSALSAQLREAATQAQQTLGSTIDKATGILLYGLASRLRDTRRLSFLVSYIASKKIHTEPQLSAALEYVRSHPLDPIDTVDFERECGVGVIVTPEQIEEAVEAAINRHRPQLLVERYHFNMGLLMGEARAVLKWADGKMIKNEVDMQVLHLLGPKLEADLEKKFKVAKARLEETDRRTAKDVVENGETADQTLSLMEQLRGEALKFHKPGENYKTPGYVVTPHTMNLLKQHLEITGGQVRTRFPPEPNGILHIGHAKAINFNFGYAKANNGICFLRFDDTNPEKEEAKFFTAICDMVAWLGYTPYKVTYASDYFDQLYAWAVELIRRGLAYVCHQRGEELKGHNTLPSPWRDRPMEESLLLFEAMRKGKFSEGEATLRMKLVMEDGKMDPVAYRVKYTPHHRTGDKWCIYPTYDYTHCLCDSIEHITHSLCTKEFQARRSSYFWLCNALDVYCPVQWEYGRLNLHYAVVSKRKILQLVATGAVRDWDDPRLFTLTALRRRGFPPEAINNFCARVGVTVAQTTMEPHLLEACVRDVLNDTAPRAMAVLESLRVIITNFPAAKSLDIQVPNFPADETKGFHQVPFAPIVFIERTDFKEEPEPGFKRLAWGQPVGLRHTGYVIELQHVVKGPSGCVESLEVTCRRADAGEKPKAFIHWVSQPLMCEVRLYERLFQHKNPEDPTEVPGGFLSDLNLASLHVVDAALVDCSVALAKPFDKFQFERLGYFSVDPDSHQGKLVFNRTVTLKEDPGKV
notes: human cytosolic QRS, gene cloned from the cDNA of HEK293 cells; also called QRS; source: recombinant from a modified pET28b, purified (Ni-NTA, gel filtration)
binding result [1]: binds

B4: AaRS-interacting multi-functional protein 1 (natural protein, human, UniProt Q12904 1-312, looked up)
chain: MANNDAVLKRLEQKGAEADQIIEYLKQQVSLLKEKAILQATLREEKKLRVENAKLKKEIEELKQELIQAEIQNGVKQIPFPSGTPLHANSMVSENVIQSTAVTTVSSGTKEQIKGGTGDEKKAKEKIEKKGEKKEKKQQSIAGSADSKPIDVSRLDLRIGCIITARKHPDADSLYVEEVDVGEIAPRTVVSGLVNHVPLEQMQNRMVILLCNLKPAKMRGVLSQAMVMCASSPEKIEILAPPNGSVPGDRITFDAFPGEPDKELNPKKKIWEQIQPDLHTNDECVATYKGVPFEVKGKGVCRAQTMSNSGIK
notes: human AIMP1, gene cloned from the cDNA of HEK293 cells; also called AIMP1; source: recombinant from a modified pET28b, purified (Ni-NTA, gel filtration)
binding result [1]: binds

Next, values leading:

binding result [1]: binds
B1: Human cytosolic arginyl-tRNA synthetase (enzyme, UniProt P54136 1-660, looked up)
chain: MDVLVSECSARLLQQEEEIKSLTAEIDRLKNCGCLGASPNLEQLQEENLKLKYRLNILRKSLQAERNKPTKNMINIISRLQEVFGHAIKAAYPDLENPPLLVTPSQQAKFGDYQCNSAMGISQMLKTKEQKVNPREIAENITKHLPDNECIEKVEIAGPGFINVHLRKDFVSEQLTSLLVNGVQLPALGENKKVIVDFSSPNIAKEMHVGHLRSTIIGESISRLFEFAGYDVLRLNHVGDWGTQFGMLIAHLQDKFPDYLTVSPPIGDLQVFYKESKKRFDTEEEFKKRAYQCVVLLQGKNPDITKAWKLICDVSRQELNKIYDALDVSLIERGESFYQDRMNDIVKEFEDRGFVQVDDGRKIVFVPGCSIPLTIVKSDGGYTYDTSDLAAIKQRLFEEKADMIIYVVDNGQSVHFQTIFAAAQMIGWYDPKVTRVFHAGFGVVLGEDKKKFKTRSGETVRLMDLLGEGLKRSMDKLKEKERDKVLTAEELNAAQTSVAYGCIKYADLSHNRLNDYIFSFDKMLDDRGNTAAYLLYAFTRIRSIARLANIDEEMLQKAARETKILLDHEKEWKLGRCILRFPEILQKILDDLFLHTLCDYIYELATAFTEFYDSCYCVEKDRQTGKILKVNMWRMLLCEAVAAVMAKGFDILGIKPVQRM
notes: human cytosolic RRS, gene cloned from the cDNA of HEK293 cells; also called RRS; source: recombinant from a modified pET28b, purified (Ni-NTA, gel filtration)

binding result [1]: binds
B5: Human cytosolic aspartyl-tRNA synthetase (enzyme, UniProt P14868 1-501, looked up)
chain: MPSASASRKSQEKPREIMDAAEDYAKERYGISSMIQSQEKPDRVLVRVRDLTIQKADEVVWVRARVHTSRAKGKQCFLVLRQQQFNVQALVAVGDHASKQMVKFAANINKESIVDVEGVVRKVNQKIGSCTQQDVELHVQKIYVISLAEPRLPLQLDDAVRPEAEGEEEGRATVNQDTRLDNRVIDLRTSTSQAVFRLQSGICHLFRETLINKGFVEIQTPKIISAASEGGANVFTVSYFKNNAYLAQSPQLYKQMCICADFEKVFSIGPVFRAEDSNTHRHLTEFVGLDIEMAFNYHYHEVMEEIADTMVQIFKGLQERFQTEIQTVNKQFPCEPFKFLEPTLRLEYCEALAMLREAGVEMGDEDDLSTPNEKLLGHLVKEKYDTDFYILDKYPLAVRPFYTMPDPRNPKQSNSYDMFMRGEEILSGAQRIHDPQLLTERALHHGIDLEKIKAYIDSFRFGAPPHAGGGIGLERVTMLFLGLHNVRQTSMFPRDPKRLTP
notes: human cytosolic DRS, gene cloned from the cDNA of HEK293 cells; also called DRS; source: recombinant from a modified pET28b, purified (Ni-NTA, gel filtration)
